Assay results reported in the supplement of paper PMC6757056.
± gives the standard deviation of the averaged measurements.

B1: library; a variant is named by its letters at N, in order (parent)
chain: GCUGUCACCGGUGCUUGGUACGUUAUAUUCAGCCGGUCUGAUGAGUCUNNNNNNAGACGAAACAGC

Assays:
[1] = variants of: B1; assay: normalized RNA/DNA level without ligand (relative to sTRSVctl = 100) (log10 (% of sTRSVctl)); HEK293T overexpressing SLC46A1; higher = less ribozyme self-cleavage, higher mRNA level; conditions: without (6R,S)-folinic acid; ligand present: no
Outline: (§1)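 Ribozyme switch library plasmids linked to reporters were introduced into HEK293T cells at 4 µg per 6-well well, with ligand, if any, added 1 h before. Total RNA was extracted with EDTA 72 h later, reverse-transcribed, amplified, barcoded and sequenced. RNA level was computed from RNA over DNA reads relative to a spiked-in non-cleaving sequence or the top sequences, then scaled and log-transformed. The top set was 25 sequences, values were ×100 and log10, and the cutoff was ≥100 DNA reads.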

[2] = variants of: B1; assay: normalized RNA/DNA level with ligand (relative to sTRSVctl = 100) (log10 (% of sTRSVctl)); HEK293T overexpressing SLC46A1; ligand concentration (+) RNA-Seq: 6 mM; higher = less ribozyme self-cleavage, higher mRNA level; conditions: with (6R,S)-folinic acid; ligand present: yes
Outline: as §1

| Variant | normalized RNA/DNA level without ligand (log10) [1] | normalized RNA/DNA level with ligand (log10) [2] |
| --- | --- | --- |
| CACCCU | 2.059 ± 0.0058 | 2.04 ± 0.012 |
| UUCCUU | 2.02 ± 0.017 | 2.034 ± 0.018 |
| GUUAUU | 2.016 ± 0.0067 | 2.007 ± 0.02 |
| GCAAUA | 2.014 ± 0.013 | 2.03 ± 0.026 |
| GCAACA | 2.058 ± 0.0047 | 2.05 ± 0.038 |
| AUAUCG | 1.962 ± 0.0099 | 2.03 ± 0.035 |
| ACCGCG | 1.994 ± 0.015 | 2.05 ± 0.017 |
| CUGGCC | 2.079 ± 0.011 | 2.03 ± 0.032 |
| CUGGCA | 1.999 ± 0.0069 | 1.98 ± 0.042 |
| UCGGUC | 2.09 ± 0.025 | 2.06 ± 0.051 |
| CUCGGC | 2.05 ± 0.027 | 2.04 ± 0.034 |
| AAUCGA | 1.974 ± 0.019 | 2 ± 0.029 |
| ACCGGU | 2.068 ± 0.0071 | 2.052 ± 0.015 |
| UGUGUC | 2.041 ± 0.019 | 2.004 ± 0.012 |
| AGGAUU | 2.024 ± 0.017 | 2.05 ± 0.028 |
| GGCGCU | 2.113 ± 0.014 | 2.1 ± 0.057 |
| CGCACC | 2.079 ± 0.014 | 2.07 ± 0.063 |
| CGACGU | 1.995 ± 0.002 | 2.02 ± 0.021 |
| CCCCCG | 2.05 ± 0.023 | 2 ± 0.0065 |
| CCGGGG | 1.985 ± 0.01 | 2.01 ± 0.049 |
| CUUUCC | 2.02 ± 0.03 | 2 ± 0.021 |
| CUGGUA | 1.95 ± 0.023 | 1.98 ± 0.034 |
| UCGAUC | 2.06 ± 0.025 | 2.03 ± 0.026 |
| CUAUGC | 2.036 ± 0.0043 | 2.036 ± 0.0099 |

| Variant | normalized RNA/DNA level without ligand (log10) [1] | normalized RNA/DNA level with ligand (log10) [2] |
| --- | --- | --- |
| GGUCUA | 2.01 ± 0.021 | 2.03 ± 0.029 |
| CCUAGG | 2.05 ± 0.03 | 2.043 ± 0.0025 |
| GCCAUC | 2.02 ± 0.031 | 2 ± 0.032 |
| UAGAUC | 2.0543 ± 0.0014 | 2.06 ± 0.055 |
| GGCCAC | 2.022 ± 0.0039 | 1.99 ± 0.016 |
| CAGAUC | 2.046 ± 0.013 | 2.03 ± 0.052 |
| GGGCCG | 2.091 ± 0.018 | 2.08 ± 0.047 |
| GGGCCA | 2.126 ± 0.019 | 2.09 ± 0.041 |
| CGCUUA | 2.002 ± 0.011 | 2.014 ± 0.019 |
| UAACCU | 2.01 ± 0.024 | 2.018 ± 0.0082 |
| GCUUGU | 2.004 ± 0.017 | 2.04 ± 0.058 |
| ACGUGG | 1.954 ± 0.0043 | 2.05 ± 0.025 |
| UUUGAC | 2.012 ± 0.0044 | 2.011 ± 0.018 |
| AUUUAA | 1.953 ± 0.013 | 1.99 ± 0.059 |
| CCCACA | 2.05 ± 0.027 | 2 ± 0.034 |
| CGCUAG | 2.007 ± 0.0038 | 2.025 ± 0.011 |
| GCUUCG | 2.024 ± 0.015 | 2.02 ± 0.025 |
| CCGUUA | 2.005 ± 0.0026 | 1.97 ± 0.055 |
| UGGCGA | 1.98 ± 0.0056 | 2.067 ± 0.0097 |
| CGAUUA | 1.958 ± 0.017 | 1.992 ± 0.013 |
| GGGCUG | 2.044 ± 0.0043 | 2.03 ± 0.046 |
| GGCAGU | 2.058 ± 0.0031 | 2.013 ± 0.0043 |
| AAAUUA | 1.97 ± 0.012 | 1.99 ± 0.03 |
| GCAUCU | 2.054 ± 0.0071 | 2.04 ± 0.058 |

| Variant | normalized RNA/DNA level without ligand (log10) [1] | normalized RNA/DNA level with ligand (log10) [2] |
| --- | --- | --- |
| CUAGUC | 2.081 ± 0.0096 | 2.025 ± 0.015 |
| GUUUAA | 1.989 ± 0.0071 | 1.99 ± 0.025 |
| GUUUAU | 1.99 ± 0.02 | 1.99 ± 0.031 |
| UCUAGG | 1.982 ± 0.015 | 2.05 ± 0.026 |
| AAUACG | 1.934 ± 0.0037 | 1.99 ± 0.056 |
| AUGUAU | 1.94 ± 0.025 | 2.03 ± 0.027 |
| ACUCGG | 1.979 ± 0.013 | 2.02 ± 0.024 |
| ACAAAA | 1.97 ± 0.0049 | 1.99 ± 0.033 |
| AGCUCG | 1.99 ± 0.024 | 1.998 ± 0.0042 |
| GUUUCC | 2.021 ± 0.015 | 2 ± 0.068 |
| GAGAUU | 2.017 ± 0.0046 | 2.01 ± 0.022 |
| UGUGCC | 2.023 ± 0.019 | 2.06 ± 0.029 |
| UGUGCA | 1.9059 ± 0.0006 | 1.99 ± 0.04 |
| GAGGUC | 2.038 ± 0.01 | 2.04 ± 0.052 |
| GGUGUC | 2.051 ± 0.019 | 2.01 ± 0.028 |
| UCCGUU | 2.049 ± 0.0025 | 2.05 ± 0.068 |
| GUGGUC | 2.02 ± 0.023 | 2 ± 0.029 |
| UUCGGG | 1.86 ± 0.024 | 2.01 ± 0.052 |
| CCCUAA | 2.0445 ± 0.00066 | 2.039 ± 0.015 |
| CCCUAC | 2.07 ± 0.025 | 2.085 ± 0.019 |
| GACAGC | 2.002 ± 0.0097 | 2.03 ± 0.046 |
| CUGGAG | 1.883 ± 0.01 | 1.99 ± 0.029 |
| CACUAU | 1.962 ± 0.0042 | 2.01 ± 0.03 |
| CUCGUA | 2.004 ± 0.016 | 1.98 ± 0.046 |

| Variant | normalized RNA/DNA level without ligand (log10) [1] | normalized RNA/DNA level with ligand (log10) [2] |
| --- | --- | --- |
| CCCAUG | 2.044 ± 0.0075 | 2 ± 0.033 |
| UCCGAA | 1.941 ± 0.015 | 1.978 ± 0.019 |
| CCCUUA | 2.065 ± 0.0096 | 2.08 ± 0.064 |
| ACCCAA | 2.02 ± 0.024 | 2.018 ± 0.013 |
| CGCCCA | 2.068 ± 0.0022 | 2.06 ± 0.033 |
| UCCCAA | 1.981 ± 0.011 | 1.97 ± 0.024 |
| GCCUAG | 1.98 ± 0.023 | 2.05 ± 0.032 |
| GCCUAU | 2.027 ± 0.018 | 2.065 ± 0.02 |
| AGGGGA | 2.001 ± 0.0065 | 2.04 ± 0.058 |
| AACAGC | 2.0178 ± 0.00095 | 2.02 ± 0.022 |
| GCUCGC | 2.02 ± 0.027 | 2.0264 ± 0.00071 |
| UUUCAU | 1.993 ± 0.0093 | 2.02 ± 0.022 |
| GGCCCG | 2.07 ± 0.0078 | 2.07 ± 0.023 |
| GGCCCC | 2.023 ± 0.0026 | 2.01 ± 0.026 |
| GUUCUG | 1.981 ± 0.015 | 1.987 ± 0.014 |
| AGCUUU | 2.014 ± 0.0092 | 2.016 ± 0.018 |
| GGCUCC | 2.0314 ± 0.0019 | 2.02 ± 0.046 |
| AUGUCU | 1.993 ± 0.017 | 1.99 ± 0.02 |
| CUGAGU | 2.052 ± 0.016 | 2.058 ± 0.015 |
| AGUACA | 1.983 ± 0.0056 | 2 ± 0.038 |
| CUUGCG | 2.03 ± 0.017 | 2.01 ± 0.029 |
| ACGCAA | 1.988 ± 0.011 | 2.01 ± 0.031 |
| UUUGUG | 1.73 ± 0.051 | 1.95 ± 0.046 |
| AUGCAU | 1.934 ± 0.011 | 2.006 ± 0.005 |

| Variant | normalized RNA/DNA level without ligand (log10) [1] | normalized RNA/DNA level with ligand (log10) [2] |
| --- | --- | --- |
| UCUCUC | 2.076 ± 0.015 | 2.04 ± 0.035 |
| GUAUAU | 1.944 ± 0.018 | 1.97 ± 0.043 |
| AUCGGU | 1.94 ± 0.02 | 1.96 ± 0.032 |
| UAGGUU | 1.961 ± 0.011 | 2 ± 0.026 |
| UUGUUU | 2.065 ± 0.018 | 2.08 ± 0.035 |
| UUCGAC | 1.994 ± 0.0022 | 2.02 ± 0.037 |
| CCAGAG | 1.909 ± 0.013 | 2.014 ± 0.019 |
| GGAGUC | 2.02 ± 0.023 | 2.01 ± 0.024 |
| UCUCAC | 2.098 ± 0.0045 | 2.04 ± 0.035 |
| CAGCAA | 1.963 ± 0.018 | 1.971 ± 0.013 |
| AGUGUA | 1.942 ± 0.007 | 2 ± 0.05 |
| CGACCC | 2.05 ± 0.028 | 2.02 ± 0.051 |
| ACGCUC | 2.053 ± 0.015 | 2.05 ± 0.036 |
| CCUUAC | 2.02 ± 0.027 | 2.056 ± 0.014 |
| CCUUAG | 1.934 ± 0.015 | 1.96 ± 0.046 |
| AUGGCC | 2.063 ± 0.0035 | 2.04 ± 0.05 |
| AUGGCU | 1.989 ± 0.011 | 2.02 ± 0.031 |
| CAGGCC | 2.06 ± 0.046 | 2.02 ± 0.049 |
| UCUGUA | 1.961 ± 0.0025 | 2.04 ± 0.026 |
| CGUACC | 2.1 ± 0.0079 | 2.021 ± 0.016 |
